Data: the nanobody polyreactivity screen of Harvey et al. (2022)

Experiment: yeast display, Sf9 membrane polyspecificity reagent, FACS + sequencing; frameworks hold sequencing errors
How it was run: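 Polyreactivity labels are assigned by the sorting gate from which each nanobody was recovered. The gates were low and high (top ~1%), set on anti-HA fluorescence for expression and streptavidin fluorescence for reagent binding. Before sorting, galactose-induced (36–48 hours) yeast display cells were stained for 1 hour at 4 °C with 10% biotinylated, detergent-solubilized Sf9 membrane reagent.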

| Sequence | polyreactivity (PSR sort gate) |
| --- | --- |
| QVQLVESGGGLVQAGWSLRLSCAASGRTFTHAMGWYRQAPGKERELVADISSGGSPNYADSVKGRFTISRDNAKNSVYLQMNSLKREDTAVSYCAAVSGSLYGYSVDYWGQGTQVTGSS | low polyreactivity |
| QVQLVESGGGLVQAGGSLRLSCAASGYTFPDYAMGWYRQAPGKERELVADITSAGNTYYADSVKGRFTISRDNAKNTVYLQMNSLKPEDTAVYYCNKDDLWENGISYSSPYRLDHWGQGTQVTVSS | low polyreactivity |
| QVQLVESGGGLVQAGGSLRLSCAASGYTFVIYAMGSYRQAPGKERELVAAITTIGGRTYYADSVKGRFTISRDNAKNTVYLQMNSLKPEDTAVYYCAADIRSNRLYDGGYWGQGTQVTVSS | low polyreactivity |
| QVQPQESGGGLVQAGGSLRLSCAASGTIFAFQTMGWYRQAPGKERELVASITYGSSTNYADSVKGRFTISRDNAKNTVYLQMNSLKPEDTAVYYCAVPQAQYYYDYWGQGTQVTVSS | high polyreactivity |
| HVQLQESGGGLVQAGGSLRLSCAASGNISYSRNMGWYRQAPGKERELVAAIDRGAITYYADSVKGRFTISRDNATNTVYLQIYSLKPEDTAVYYCAAEYHDRWDHRYWGQGTQVTVSS | high polyreactivity |
| QVQLVESGGGLVQAGGSLRLSCAASGFTLDWYAMGWYRQAPGKERELVAAIWSAGTTYYADSVKGRFTISRDNAKNTVYLQMNSLKPEDTAVYYCATVSDYDFGLYDYWGQGSQVTVSS | low polyreactivity |
| QVQLVESGGGLVQAGGSLRLSCAASGSTFYPYAMGWYRQAPGKERELVAAITYSGGSTYYADSVKGRFTISRDNAKNTVYLQMNSLKPDDTAVYYCATPYFSTPRVRGFDYWGQGTQVTVSS | low polyreactivity |
| QVQLVESGGGIVQAGGSLRLSCAASGSTFYVYAMGWYRQAPGKERELVAAITVRGGSTYYADSVKGRFTISRDNAKNTVYLQMNSLKPEDTSVDYCNAEGTYGYWRSYNYWGQGTQVTVSS | high polyreactivity |
| QVQLVESGGGLVQAGGSLRLSCADSGRIFDVNDKRSYRQAPGKERELVAAITYSGTDTYYADSVKGRFTISRDNAKNTVYLQMNSLKPEDTAVYYCAAEFTGWEYIGRDYWGQGTQVTVSS | low polyreactivity |
| QVHLVESGGRLVQAGGSLRLSCAASGGTFYQYTMGWYRQAPGKERELVAAITRSGGSTRYADTVKGRFTISRDNAKNTVYLQMNSLKPEDTAVFYCAARSGYPSFEYWGPGTQVTVSS | high polyreactivity |
| QVQLVESGGGLVQAGGSLRLSCAASGFISPKYGMGWYRQAPGKERELVAAITPSDGSTSYADSVKGRFTISRDNAKNTVYLQMNSLKPEDTAVYYCNKSRYKSYSYDYWGQGTQVTVSS | high polyreactivity |
| QVQLVESGGGLVQAGGSLRLSCAASGRIFAYYAKGWYRQAPRKQRELVAAISSGGNTNYADSVKGRFTISRDNAKKTVYLQMNSLKPEDSAVYYCSAYHFSFGWIRVDDWGQGTQVTVSS | high polyreactivity |
| QVQLVESGGGLVQAGGSLRLRCAASGSIFFYYVMGWYRQAPGKEREFVAAITYSGGSTYYADSVKGRFTISRDNAKNTVYFQMNSMQQEDTAVYYCAADYSPSIGGFWFGGRHYGYWGQGTQVTVSS | low polyreactivity |
| QVQLVESGGGLVQAGGSLRLRSAASGSIIPEYVMGWYRQAPGKERELVAAISWSGGSTYYADSVKGRFTISRDNAKNTDYLQMNSLKPEDTAVYYCNRVPSWRIDYDYWGQGTQVTVSS | low polyreactivity |
| QVQLVESGGGLVQAGGSLRLSCAASGRIFLVYVMGWYRQAPGKERELVAAISASDGSTYYADSVKGRFTISRDNAKNTVYLQMNSLKPEDTAVYYCAEWGYSLDSNSYRELNYWGQGTQVTVSS | low polyreactivity |
| QVQLVESGGGLVQAGGSLRLSCAASGIFASYAMGWYRQAPGKERELVADITWRGGNTFYADSVKGRFTISRDNAKNTVYLQMNSLKPEDTAVYYCAADYRPYLRYTVRGYGYWGQGTKVTVSS | high polyreactivity |
| QVHLVESGGGLVQAGGSLRLSCAASGRTLYDYAMEWYRQAPAKERELVAGITSGDSTYYADSVKGRFTISRDNAKNTVYLQMNSLKPEDTAVYYCAADSDTFYYTGYDYDYWGQGTQVTVSS | low polyreactivity |
| QVQLQESGGGLVQAGGSLRLSCAASGSIFVSVTMGWYRQAPGKERELVASIGRGSTTNHADSVKGRFTISRDNAKNIVYLLMNSLKPEDTAVYYCASLESYGKYHGYWGQGTQVTVSS | low polyreactivity |
| QVQIVESRGGLVQAGGSLRLSCAASGRILYLYAMGWYRQAPGKERELVARISQRDGSTYYADSVKGRFTISRDNAKNNDYLHMNSLKPEDTAVYYCNAVFSRGSYGYSYDYWGQGTQVTVSS | low polyreactivity |
| QVQLVESGGGLVQAGGSLRLSCAASGRTFFGYAMGWYRQAPGKERELVAAITTSGGSTYYADSVKGRFTISRDNAKNTVYLQMNSLKPEDTAVYYCAADSTNYWLGFYYWGQGTQVTVSS | low polyreactivity |
| QVQLVESGGGLVQSGGSLRLSCAASGIIFCRYAMGWYRQAPGKERELVATITWRGGSTYDADSVKGRFTISRDNAKNTVYLQMNSLKPEDTAVYYCAADNRQSRSFRARAYWGQGNQVTVSS | low polyreactivity |
| QVQLVESGGGLVQAGGSLRLSCAASGFTFRSYAMGWYRQAPGKVRELVAAISLGGTSTYYADSVKGRFTISRDNAKNTVYLPMNSLKPEDTAVYYCAARSYGHYGYWGQGTQVTVSS | high polyreactivity |

| Sequence | polyreactivity (PSR sort gate) |
| --- | --- |
| QVQLVESGRGLVQAGGSLRLSCAASGSTFGGYAMGWNRPAPGKERELVAAISIEGGSTYYAESVKGRFTISRDNAKNTVYLQMNSLKPEDTAVYYCNADEYYYGYNYWGQATQVTVSS | low polyreactivity |
| QVQLVESGGGLVQAGGSLRLSCAASGRTFRYYAMGWYRQAPGKERELVAAISRSGGSTYYAVSVKGRFTISRDNAKNTVYLQMNSLTPEVTAVYYCAARYYVPWFGPSKYTPYDYWGQGIQVTVSS | high polyreactivity |
| QVQLVESGGGLVQAGGSLRLSCAASGRILNVYAMGWYRQAPGKERELVAAINYRGTNTYYADSVKGRFTISRDNAKNTVYLQMNSLKPEDTADYYCAARRHVYLRGSTFEFNYWGQGTHVTVSS | high polyreactivity |
| QVQLVESGGGLVQAGGSHRLSSAASGGIFGKYAMGWYRQAPGKEMDLVAAITWNGGRTYYADSVKGRFTISRDNAKYTLYLQMNSLKPVDTAVHFCAVDDAYPDRYDYWGQGSQVTVSS | high polyreactivity |
| QVQLVESGGGLVQAGGSLRLSCAASGRTLVLYAMGWYRQAPGKERELVAAITWSGDSTYYADSVKGRFTISRDNAKNTVYLQMNSLKPEDTAVYYCAATYLNAKRGLRYDYWGQDTQVTVSS | low polyreactivity |
| QVQLVESGGGLVQAGGSLRLSCAASGRTFRRYAMGWYRQAPGKERELVAAISRNGGSTYYADSVKGRFTISRDNAKNTVYLQMNSLKPEDTAVYYCNAVTYGSYYYWGQGTQVTVSS | high polyreactivity |
| QVQLVESGGGLVHAGGSLRLSCAASGSIFGWYVMGWYRQAPGKERELVAAISSVGSTYYADSVKGRFTISRDNAKNTVCLQMNSLKPEDTAVYYCAKLRYPYLFWDDSEYWGQGTQVTVSS | low polyreactivity |
| QVQLVESGGGLVQAGGSLRLSCAASGRTIPHNAMGWYRQAPGKERQLVATITAGSGSTYYADSVKGRFTISRDNAKNTVSLQLNSLKPEDTAVYYCNAKWTLYQSDYWYYIYDYWGQGTQVTVSS | low polyreactivity |
| QVHLVESGGGLVQAGGSLRLTCAASGSIFSYAMGWYRQAPGKESELVAAISSGGGRTYYADSVKGRFTISRDNAKNTVYLQMNRLKPEDTAVYFCAAVGLPQGRYGYWGQGTQVTLSS | high polyreactivity |
| QVQLVESGGGLVQAGGSLRLICAASGFTFGEYAMGWYRKAPGKERELVAGISWSGGGTYYADSVKGRFTISRDTAKNTVYLQMNCLKPEDTAVYYCAKAGYYFFQQWQVDYWGQGTQVTVSS | low polyreactivity |
| QVQLVESGGGLVQAGGSLRLSCAASGSTFAYYAMGWYRQAPGKERELVAAITWSGGSTSYADSVKGRFTISRDNAKNTVYLQMNSLKPEDTGVYYCNADDKPLDWREYNYWGQGTQVTVSS | low polyreactivity |
| QVQLVESGGGLVQAGGSLRLSCAASGRTFYTNAMGWYRQARGKERELVAGISWGDGNTYYADSVKWRFTISRDNAKNTVYLQMNSLKPEDTALYYCAVTYIILWSYSHTEFDYWGQGNQVTVSS | low polyreactivity |
| QVQLVESGGGLVQAGGSLRLSCAASGRIFYRYAMGWYRQAPGKERELVASITSGGSTTYYADSVKGRFTISRDNAKNTVYLQMNSLKPEDTAVYYCAARPRYRKEYDYWGQGTQVTVSS | high polyreactivity |
| QVQLVESGGGLVQAGGSLRLSCAASGFIFDYYAMGWYRQAPGKERELVAAITRDGGGTYYADSVKGRFTISRDNAKNTVYFQMNSLKPEDTAVYYCAARTAYYHGSKYYYRGQGTQVTVSS | high polyreactivity |
| QVQLVESGGGLVQAGGSLRLSCAASGRIFLGNAMGWYRQAPGNERELVADITTDGSTYYADSVKGRFTISRDNAKNTVYLQMNSLKPEVTAVYYCAAGEHPSFRSSYKYDYWGQGTQVTVSS | low polyreactivity |
| QVHLQESGCGLVQAGGSLRLSCAPSGSIFVSVTMGWYRQAPGKERELVASIGRGSTTNHADSVKGRFTISRDNAKNIVYLLMNSLKPEDTAVYFCAALESYGKYHGYWGQGTKVTVSS | low polyreactivity |
| QVQLVESGGGLVQAGGSLLLSCAASGFTFSYYAMGWYRQAPGKERDLVAAISWDGDSTYYADSVKGRFTISRDNAKNTVYLQMNSLKPEDTAVYYSAAEFSYYWDGYDYWGQGTQVTVSS | high polyreactivity |
| QLQLVESGGGLVQAGGSLRLSCAASGSTFRYNAMGWYRQAPGKEREFVAAITSGGGSTYYADSVKGRFTISRDNAKNTVYLQMNSLKPEDTAVYYCAKYTSSRRNTWYYYWGQGTQVTVSS | high polyreactivity |
| QVQLVESGRGLVQAGGSLRLSCAASGRTFSYYVMGWYRQAPGKERELVAAISDSGGSTYYADSVKGRFTISRDNAKNTVYLQMNSLKPEDTAVYYCATDSYWYRLREYNYWGQGTQVTVSS | high polyreactivity |
| QVQLVESGGGLVQAGGSLRLSCAASGRTFGKYAMGWYRQAPGKESELVAAITNSGGSTYYADSVKGRFTISRDNAKNTVYLQMNSLKPEDTAVYYCNRLGYRGPSKLNHMGYWGQGTQVTVSS | high polyreactivity |
| QVHLVESGGGLVQAGGSLRLSSAASGLIFYHYAMGWYRQAPGNERELVAAITKRGGSTYYADSVKGRFTISRDNAKNTVYLQINSLKQEDTAVYYCAADGVRYTQSFEMYWGQGTQVTVSS | high polyreactivity |
